Here are results for 11 molecules from article PMC8163081 (Science Advances, 2021).

One test has as its target α-actinin-2 (human) (UniProt P35609). The test is described as follows: ITC.
Test [1] concerns the target hd-α-actinin-2 (human) (UniProt P35609). Kind of test: SEC-MALS.
The target is the same in test [2]. Kind of test: ITC.
The target of test [3] is T1, α-actinin-2 (human, UniProt P35609 1-894). Kind of test: peptide or protein array.
Test [4] concerns the target T1, α-actinin-2. The test is described as follows: ITC.
The target of test [5] is T1, α-actinin-2. The test is described as follows: SEC-MALS.
In test [6] the target is α-actinin-2-yellow fluorescent protein (YFP) (human, UniProt P35609 1-894). The test is described as follows: FRET or BRET.
For test [7], the target named is human (nonmuscle) α-actinin-1 (human, UniProt P12814 1-892). Kind of test: SEC-MALS.
Another test addresses rod-α-actinin-2 (human, UniProt P35609 274-746). Kind of test: SEC-MALS.

Chain of hd-α-actinin-2 (human) (P35609 19-894): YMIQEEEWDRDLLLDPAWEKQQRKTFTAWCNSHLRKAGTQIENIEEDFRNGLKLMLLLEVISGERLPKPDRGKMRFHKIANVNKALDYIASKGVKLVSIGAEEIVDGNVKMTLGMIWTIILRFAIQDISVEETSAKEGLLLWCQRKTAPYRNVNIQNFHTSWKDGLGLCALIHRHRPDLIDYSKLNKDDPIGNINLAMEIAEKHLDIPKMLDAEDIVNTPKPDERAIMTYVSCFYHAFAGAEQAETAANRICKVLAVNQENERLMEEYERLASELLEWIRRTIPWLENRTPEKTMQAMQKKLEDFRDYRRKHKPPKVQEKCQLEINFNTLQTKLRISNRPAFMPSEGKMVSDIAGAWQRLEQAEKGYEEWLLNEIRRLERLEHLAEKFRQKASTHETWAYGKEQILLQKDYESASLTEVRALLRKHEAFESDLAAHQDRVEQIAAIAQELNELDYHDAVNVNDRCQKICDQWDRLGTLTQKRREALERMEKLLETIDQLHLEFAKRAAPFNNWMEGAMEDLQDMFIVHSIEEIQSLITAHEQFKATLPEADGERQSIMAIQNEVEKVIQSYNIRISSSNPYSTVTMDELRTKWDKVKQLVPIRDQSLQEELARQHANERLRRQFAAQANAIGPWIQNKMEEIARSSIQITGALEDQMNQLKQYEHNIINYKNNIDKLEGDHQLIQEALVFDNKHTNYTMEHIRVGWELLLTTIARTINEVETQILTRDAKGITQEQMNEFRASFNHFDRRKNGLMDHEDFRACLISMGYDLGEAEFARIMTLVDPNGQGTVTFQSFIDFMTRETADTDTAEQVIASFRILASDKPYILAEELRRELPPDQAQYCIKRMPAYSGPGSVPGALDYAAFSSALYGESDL
Chain of α-actinin-2 (human) (P35609 whole entry): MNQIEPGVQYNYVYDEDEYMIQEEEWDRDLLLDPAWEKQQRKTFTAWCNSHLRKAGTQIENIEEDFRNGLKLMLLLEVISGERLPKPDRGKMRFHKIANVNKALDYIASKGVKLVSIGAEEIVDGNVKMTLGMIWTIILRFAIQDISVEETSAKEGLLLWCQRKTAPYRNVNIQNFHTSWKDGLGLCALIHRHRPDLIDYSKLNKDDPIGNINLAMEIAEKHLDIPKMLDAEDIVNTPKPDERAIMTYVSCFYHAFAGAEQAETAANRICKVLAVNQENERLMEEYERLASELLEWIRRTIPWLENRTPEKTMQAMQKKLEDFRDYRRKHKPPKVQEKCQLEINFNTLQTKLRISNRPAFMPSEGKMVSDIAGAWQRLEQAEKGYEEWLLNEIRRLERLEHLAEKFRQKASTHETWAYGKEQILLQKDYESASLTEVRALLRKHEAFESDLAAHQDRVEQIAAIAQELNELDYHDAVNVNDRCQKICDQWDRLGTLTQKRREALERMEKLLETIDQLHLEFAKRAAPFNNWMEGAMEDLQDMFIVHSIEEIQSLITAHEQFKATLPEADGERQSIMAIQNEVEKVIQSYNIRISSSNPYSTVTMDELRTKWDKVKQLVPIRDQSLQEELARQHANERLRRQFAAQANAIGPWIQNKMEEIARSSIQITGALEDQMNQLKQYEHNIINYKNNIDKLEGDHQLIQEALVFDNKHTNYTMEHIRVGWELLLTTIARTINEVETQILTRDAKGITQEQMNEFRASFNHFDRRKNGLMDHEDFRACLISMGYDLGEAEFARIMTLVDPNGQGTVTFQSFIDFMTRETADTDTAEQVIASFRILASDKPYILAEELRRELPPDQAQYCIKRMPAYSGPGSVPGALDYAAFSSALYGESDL
T1 sequence (P35609 whole entry): as above
Chain of α-actinin-2-yellow fluorescent protein (YFP) (P35609 whole entry): as above
Chain of human (nonmuscle) α-actinin-1 (P12814 whole entry): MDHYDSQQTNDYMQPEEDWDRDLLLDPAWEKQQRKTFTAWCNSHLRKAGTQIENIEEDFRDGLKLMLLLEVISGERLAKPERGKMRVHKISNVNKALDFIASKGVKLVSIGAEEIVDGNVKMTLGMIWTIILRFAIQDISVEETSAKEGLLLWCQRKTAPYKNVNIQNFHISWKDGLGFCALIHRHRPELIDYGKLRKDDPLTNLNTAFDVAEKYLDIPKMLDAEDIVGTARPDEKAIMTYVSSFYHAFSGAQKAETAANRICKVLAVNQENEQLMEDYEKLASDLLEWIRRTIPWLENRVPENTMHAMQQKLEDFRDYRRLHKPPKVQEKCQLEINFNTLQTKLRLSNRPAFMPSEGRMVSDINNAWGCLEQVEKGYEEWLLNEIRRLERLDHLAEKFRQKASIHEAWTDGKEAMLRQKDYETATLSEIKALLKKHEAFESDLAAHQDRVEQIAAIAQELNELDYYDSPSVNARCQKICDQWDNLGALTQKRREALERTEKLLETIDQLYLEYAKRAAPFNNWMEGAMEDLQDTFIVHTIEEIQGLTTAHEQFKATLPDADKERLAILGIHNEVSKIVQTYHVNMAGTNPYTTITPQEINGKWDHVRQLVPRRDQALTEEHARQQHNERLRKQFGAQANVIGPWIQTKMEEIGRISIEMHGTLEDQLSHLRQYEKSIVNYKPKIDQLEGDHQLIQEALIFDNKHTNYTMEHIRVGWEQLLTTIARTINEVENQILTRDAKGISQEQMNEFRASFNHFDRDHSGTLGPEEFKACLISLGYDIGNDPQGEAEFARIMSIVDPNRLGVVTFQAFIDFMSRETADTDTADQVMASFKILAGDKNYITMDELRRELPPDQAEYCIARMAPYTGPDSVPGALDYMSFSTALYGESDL
Chain of rod-α-actinin-2 (P35609 274-746): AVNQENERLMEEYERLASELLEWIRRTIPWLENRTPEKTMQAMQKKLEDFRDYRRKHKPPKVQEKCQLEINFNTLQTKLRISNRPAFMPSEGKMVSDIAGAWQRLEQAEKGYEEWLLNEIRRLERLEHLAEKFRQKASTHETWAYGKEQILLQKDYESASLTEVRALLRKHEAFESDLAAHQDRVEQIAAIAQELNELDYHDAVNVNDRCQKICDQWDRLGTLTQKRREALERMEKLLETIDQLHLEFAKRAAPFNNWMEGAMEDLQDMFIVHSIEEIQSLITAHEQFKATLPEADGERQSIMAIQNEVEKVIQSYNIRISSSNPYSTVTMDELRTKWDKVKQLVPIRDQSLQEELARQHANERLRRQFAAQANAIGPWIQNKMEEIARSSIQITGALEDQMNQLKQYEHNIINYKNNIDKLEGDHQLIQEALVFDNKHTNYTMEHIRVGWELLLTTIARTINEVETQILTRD

In the test with α-actinin-2 (human), trx-Δ91-FATZ-1 (domain or fragment) had a Kd of 1500 nM and a stoichiometry N of 1.3.
Consider Δ91-FATZ-1-trx (domain or fragment), for which, in the test with α-actinin-2 (human), the Kd1 (two-site binding model, first binding event) amounted to 7.8 nM and the Kd2 (two-site binding model, second binding event) came to 408 nM.
Molecule “Δ91-FATZ-1 (from UniProt Q9NP98 92-299) (domain or fragment)” had a stoichiometry N (Δ91-FATZ-1 per hd-α-actinin-2) with hd-α-actinin-2 (human) [1] of 1. In the test with hd-α-actinin-2 (human) [2], this molecule had a Kd of 260 nM and a stoichiometry N (Δ91-FATZ-1 per hd-α-actinin-2) of 1.
With KYKSFNRTAMPYGGY (peptide, UniProt Q9NP98 217-231, looked up) [FATZ-1 peptide comprising residues 217 to 231 (peptide array)], the binding result with α-actinin-2 [3] is listed as “binds”.
Consider PKYKSFNRTAMPYGGYEKASKRMTF (peptide, UniProt Q9NP98 216-240, looked up) [LM2 peptide], for which, in the test with α-actinin-2 [4], the Kd came out at 315 nM and the “stoichiometry N” value was 1.9.

B1: FATZ-1 (filamin-, α-actinin-, and telethonin-binding protein of the Z-disk) (natural protein, human, UniProt Q9NP98 1-299, looked up)
chain: MPLSGTPAPNKKRKSSKLIMELTGGGQESSGLNLGKKISVPRDVMLEELSLLTNRGSKMFKLRQMRVEKFIYENHPDVFSDSSMDHFQKFLPTVGGQLGTAGQGFSYSKSNGRGGSQAGGSGSAGQYGSDQQHHLGSGSGAGGTGGPAGQAGRGGAAGTAGVGETGSGDQAGGEGKHITVFKTYISPWERAMGVDPQQKMELGIDLLAYGAKAELPKYKSFNRTAMPYGGYEKASKRMTFQMPKFDLGPLLSEPLVLYNQNLSNRPSFNRTPIPWLSSGEPVDYNVDIGIPLDGETEEL
In the case of B1, the “stoichiometry N” value in the test with α-actinin-2 [5] was 2 FATZ molecules per α-actinin-2 dimer.

B2: ECFP-tagged FATZ-1 (WT FATZ-1) (natural protein, human, UniProt Q9NP98 1-299, looked up)
chain: MPLSGTPAPNKKRKSSKLIMELTGGGQESSGLNLGKKISVPRDVMLEELSLLTNRGSKMFKLRQMRVEKFIYENHPDVFSDSSMDHFQKFLPTVGGQLGTAGQGFSYSKSNGRGGSQAGGSGSAGQYGSDQQHHLGSGSGAGGTGGPAGQAGRGGAAGTAGVGETGSGDQAGGEGKHITVFKTYISPWERAMGVDPQQKMELGIDLLAYGAKAELPKYKSFNRTAMPYGGYEKASKRMTFQMPKFDLGPLLSEPLVLYNQNLSNRPSFNRTPIPWLSSGEPVDYNVDIGIPLDGETEEL
Turning to B2, the FRET ratio in test [6] was determined as 0.085.

B3: FATZ-2 (natural protein, human, UniProt Q9NPC6 1-264, looked up)
chain: MLSHNTMMKQRKQQATAIMKEVHGNDVDGMDLGKKVSIPRDIMLEELSHLSNRGARLFKMRQRRSDKYTFENFQYQSRAQINHSIAMQNGKVDGSNLEGGSQQAPLTPPNTPDPRSPPNPDNIAPGYSGPLKEIPPEKFNTTAVPKYYQSPWEQAISNDPELLEALYPKLFKPEGKAELPDYRSFNRVATPFGGFEKASRMVKFKVPDFELLLLTDPRFMSFVNPLSGRRSFNRTPKGWISENIPIVITTEPTDDTTVPESEDL
In the case of B3, in the test with α-actinin-2 [5], the “stoichiometry N” value was 2 FATZ molecules per α-actinin-2 dimer.

B4: ECFP-tagged FATZ-2 (WT) (natural protein, human, UniProt Q9NPC6 1-264, looked up)
chain: MLSHNTMMKQRKQQATAIMKEVHGNDVDGMDLGKKVSIPRDIMLEELSHLSNRGARLFKMRQRRSDKYTFENFQYQSRAQINHSIAMQNGKVDGSNLEGGSQQAPLTPPNTPDPRSPPNPDNIAPGYSGPLKEIPPEKFNTTAVPKYYQSPWEQAISNDPELLEALYPKLFKPEGKAELPDYRSFNRVATPFGGFEKASRMVKFKVPDFELLLLTDPRFMSFVNPLSGRRSFNRTPKGWISENIPIVITTEPTDDTTVPESEDL
Turning to B4, in test [6], the FRET ratio was 0.087.

B5: Δ91-FATZ-1 (domain or fragment, human, UniProt Q9NP98 92-299, looked up)
chain: PTVGGQLGTAGQGFSYSKSNGRGGSQAGGSGSAGQYGSDQQHHLGSGSGAGGTGGPAGQAGRGGAAGTAGVGETGSGDQAGGEGKHITVFKTYISPWERAMGVDPQQKMELGIDLLAYGAKAELPKYKSFNRTAMPYGGYEKASKRMTFQMPKFDLGPLLSEPLVLYNQNLSNRPSFNRTPIPWLSSGEPVDYNVDIGIPLDGETEEL
With B5, the results for the “stoichiometry N” value (in the test with α-actinin-2 [5]; in test [7]; in the test with rod-α-actinin-2) were 2 Δ91-FATZ-1 per α-actinin-2 dimer, 2 Δ91-FATZ-1 per α-actinin-1 (2:1 complex) and 2 Δ91-FATZ-1 per rod-α-actinin-2 dimer, respectively. Besides, the “dH (first binding event)” value with α-actinin-2 [4] was -26.5 kcal/mol.

B6: FATZ-3 (natural protein, human, UniProt Q8TDC0 1-251, looked up)
chain: MIPKEQKGPVMAAMGDLTEPVPTLDLGKKLSVPQDLMMEELSLRNNRGSLLFQKRQRRVQKFTFELAASQRAMLAGSARRKVTGTAESGTVANANGPEGPNYRSELHIFPASPGASLGGPEGAHPAAAPAGCVPSPSALAPGYAEPLKGVPPEKFNHTAISKGYRCPWQEFVSYRDYQSDGRSHTPSPNDYRNFNKTPVPFGGPLVGGTFPRPGTPFIPEPLSGLELLRLRPSFNRVAQGWVRNLPESEEL
For the molecule B6, the “stoichiometry N” value with α-actinin-2 [5] was 2 FATZ molecules per α-actinin-2 dimer.
